For 1 molecule, Kd results are on record in paper PMC9834252 (Nature Communications, 2023).

For the experiment, the target named is T1, M1-linked di-Ub (UniProt P0CG48 1-76; P0CG48 1-76).
T1 construct: ubiquitin, distal protomer (its C-terminus joined to M1 of the next); ubiquitin, proximal protomer (free C-terminus); also called M1 di-Ub; linear di-Ub; source: E. coli, purified (acid precipitation, cation exchange, SEC)
Kind of experiment: ITC; M1-linked di-Ub and HOIL-1 (WT or I358R), direct binding; who was titrated and the concentrations are not told; 25 °C, 10 mM HEPES pH 7.9, 100 mM NaCl. Particulars: both partners purified.

B1: HOIL-1 helix-RBR (WT) (domain or fragment, human, UniProt Q9BYM8 233-510, looked up)
chain: DEEERARLAGEEEALRQYQQRKQQQQEGNYLQHVQLDQRSLVLNTEPAECPVCYSVLAPGEAVVLRECLHTFCRECLQGTIRNSQEAEVSCPFIDNTYSCSGKLLEREIKALLTPEDYQRFLDLGISIAENRSAFSYHCKTPDCKGWCFFEDDVNEFTCPVCFHVNCLLCKAIHEQMNCKEYQEDLALRAQNDVAARQTTEMLKVMLQQGEAMRCPQCQIVVQKKDGCDWIRCTVCHTEICWVTKGPRWGPGGPGDTSGGCRCRVNGIPCHPSCQNCH
notes: HOIL-1, human, residues 233-510 (N-terminal helix and RBR module); also called WT HOIL-1; HOIL-1 233-510 (helix-RBR); source: E. coli BL21(DE3), purified (Ni-NTA, SEC)
B1: the dissociation constant Kd is around 50 µM.
